Positions of bridges follow the written chain, without caps; N, C: chain ends. No end group written: not given here.

Assay [1] addresses parvovirus B19 capsid proteins VP1-VP2 (Human parvovirus B19, UniProt P07299). The assay can be described thus: Batch depletion of B19 capsid proteins from solution by immobilized peptide affinity media, supernatant ELISA. The format is binding. To be noted: peptide immobilized on formyl 750-M resin; 1 hour at room temperature; compared with blank media; ELISA at 5-minute time point. How it is done:
The two peptide ligands were immobilized on an aldehyde-functional methacrylate resin support (TosoHaas formyl 750-M; Montgomeryville, Pa.). The peptides were first weighed and dissolved into immobilization buffer (100 mM NaOAc, 150 mM NaCi, 0.1% Tween 20, pH 5.0). A sample of the dissolved peptides was taken for concentration analysis. The chromatography media was measured and washed twice with immobilization buffer. The media and peptide were mixed together and tumbled overnight at room temperature. After the reaction, the supernatant was analyzed for residual peptide and the resultant B19 affinity media was washed with deionized water, 1M NaCl, Tris buffer with 1M NaCl, and twice with PBS. The immobilization data are set forth below:
These parvovirus B19 affinity media were evaluated for the ability of the immobilization ligand to recognize and bind to parvovirus B19 capsid proteins VP1-VP2. Each of the prepared media was evaluated for its ability to deplete a solution of parvovirus B19 capsid proteins as compared to a blank control (media only). […] The capsid protein stock solution was prepared by diluting 30 μl of the purified capsid protein solution (Absorbance at 280 nm=2) with 320 μl of stabilizing buffer. […]
Each sample was analyzed with a standard ELISA for the presence or absence of B19 capsid proteins at ten-fold serial dilution into stabilizing buffer. […]

A further assay has as its target VP1-VP2 (Human parvovirus B19, UniProt P07299). As to the kind of experiment: Relative binding ELISA, constant phage against decreasing amounts of VP1-VP2. As to conditions: among the 18 selected phage isolates. How it is done:
(§1) Based on the ELISA data and the sequence similarities within each library, the 18 isolates (Tables 1-3) were selected and evaluated further with respect to their binding characteristics to VP1-VP2. Relative binding of each isolate was studied by ELISA. Each selected phage isolate, held at a constant amount, was contacted with decreasing amounts per well of VP1-VP2, the amounts coating each dextrin well varying from 2 μl down to 0.001 μl. Bound phage were detected as described before using polyclonal anti-phage antibody. […] Using VP1-VP2 at 1:10 dilution as an arbitrary point, a value for the signal was interpolated, and the relative binding strengths are reflected in Tables 1-3, above.

For assay [2], the target named is T1, purified, recombinant parvovirus B19 capsid proteins VP1 and VP2 (VP1-VP2) (human parvovirus B19, UniProt P07299 1-781; P07299 1-554).
T1 construct: Surrogate target: partially purified/purified recombinant VP1 + VP2 preparation; Made by methods of US 5,498,413 or WO 91/12269
The assay can be described thus: phage ELISA; VP1-VP2 coated on dextrin plates, HRP anti-M13 detection. Here is the method:
(§2) From convergent screens of phage display libraries, eluted phage were propagated and 376 phage isolates were selected randomly and individually tested for binding to VP1-VP2 by standard ELISA techniques, using a polyclonal anti-phage antibody to detect bound phage. Briefly, VP1-VP2 (2 μl per well) was coated on dextrin plates, blocked with BSA, and individual phage isolates were added to the wells (50 μl, 10⁹ pfu per well). After washing, bound phage were incubated with the detection anti-phage antibodies (100 μl per well HRP-conjugated anti-M13 antibody in PBS-Tween (Pharmacia Inc.)). Wild type phage, displaying no non-phage peptide, were employed as controls. The bound antibody was detected by adding 100 μl per well of two-component TMB (tetramethylbenzidine; Kirkegaard & Perry).

Assay [3] concerns the target T1, purified, recombinant parvovirus B19 …. As to the kind of experiment: phage ELISA, constant phage against decreasing VP1-VP2 coat; normalized signal interpolated at 1:10 dilution of VP1-VP2. How it is done:
as §2, §1

Take “AEGTGDFCWLWPAHSCHDPGPEGGGS (cysteine pairing not given here) [H03-TN09]”: the “depletion / clearing of B19 capsid proteins from solution” value in assay [1] is “able to effectively bind parvovirus B19 capsid proteins and clear them from solution”.

Regarding “AEGTGDFFCSFWHGGCDDDPGPEGGGS (cysteine pairing not given here) [A01-TN8]”, the “ranking of relative binding strength to VP1-VP2” value in the assay with VP1-VP2 is given as “two highest-ranking isolates”. The “depletion / clearing of B19 capsid proteins from solution” value in assay [1] was “able to effectively bind parvovirus B19 capsid proteins and clear them from solution”.

B1: TN7 isolate A07 (peptide, not shown: large carriers)
peptide: FFCGFWHDCHP
modifications: disulfide 3-9 (inferred); also: displayed on M13 phage, coat protein fusion and flanking residues not given here
notes: Tested as phage isolate displaying the peptide (TN7 library)
On to B1, for which the ELISA signal in assay [2] is 0.7. In assay [3], the relative binding was 27.

B2: TN8 isolate A05 (peptide, not shown: large carriers)
peptide: AFCHFWFHGCDD
modifications: disulfide 3-10 (inferred); also: displayed on M13 phage, coat protein fusion and flanking residues not given here
notes: Tested as phage isolate displaying the peptide (TN8 library)
For the molecule B2, in assay [2], the ELISA signal is 1.3. Moreover, in assay [3], the relative binding amounted to 30.

B3: TN7 isolate B12 (peptide, not shown: large carriers)
peptide: LFCHFWYNCDF
modifications: disulfide 3-9 (inferred); also: displayed on M13 phage, coat protein fusion and flanking residues not given here
notes: as for B1
As to B3, the ELISA signal in assay [2] came out at 0.7. The relative binding in assay [3] worked out at 29.

B4: TN9 isolate E03 (peptide, not shown: large carriers)
peptide: FCHLWWPFQCA
modifications: disulfide 2-10 (inferred); also: displayed on M13 phage, coat protein fusion and flanking residues not given here
notes: Tested as phage isolate displaying the peptide (TN9 library)
Regarding B4, the ELISA signal in assay [2] was 0.8. For the same molecule, the relative binding in assay [3] stood at 40.

B5: TN9 isolate A06 (peptide, not shown: large carriers)
peptide: FCQLWWPFQCA
modifications: not fully specified (bridges); printed as Phe-Cys-Gln-Leu-Trp-Trp-Pro-Phe-Gln-Cys-Ala; cysteine pairing not given here
notes: Tested as phage isolate (TN9 library)
Regarding B5, the ELISA signal in assay [2] turned out to be 0.7.

B6: A01-TN8 phage isolate (peptide, not shown: large carriers)
peptide: FFCSFWHGGCDD
modifications: disulfide 3-10 (inferred); also: displayed on M13 phage, coat protein fusion and flanking residues not given here
notes: Tested as phage isolate displaying the peptide (TN8 library); The synthetic peptide form is a separate molecule; also called TN8 isolate A01
In the case of B6, the ELISA signal in assay [2] is 1.6. Also, the relative binding in assay [3] is 52.

B7: TN7 isolate H09 (peptide, not shown: large carriers)
peptide: LFCRFWYNCSA
modifications: disulfide 3-9 (inferred); also: displayed on M13 phage, coat protein fusion and flanking residues not given here
notes: as for B1
Turning to B7, in assay [2], the ELISA signal is 0.6.

B8: H03-TN9 phage isolate (peptide, not shown: large carriers)
peptide: FCWLWPAHSCH
modifications: disulfide 2-10 (inferred); also: displayed on M13 phage, coat protein fusion and flanking residues not given here
notes: Tested as phage isolate displaying the peptide (TN9 library); The synthetic peptide form is a separate molecule; also called TN9 isolate H03
For B8, the ELISA signal in assay [2] is 0.8. Besides, in assay [3], the relative binding is 85.

B9: TN9 isolate F01 (peptide, not shown: large carriers)
peptide: LCPAHWQFWCD
modifications: disulfide 2-10 (inferred); also: displayed on M13 phage, coat protein fusion and flanking residues not given here
notes: as for B4
For the molecule B9, the ELISA signal in assay [2] was 0.5.

B10: TN9 isolate D01 (peptide, not shown: large carriers)
peptide: FCWLWPSSDCF
modifications: disulfide 2-10 (inferred); also: displayed on M13 phage, coat protein fusion and flanking residues not given here
notes: as for B4
Take B10: in assay [2], the ELISA signal turned out to be 0.7. Moreover, the relative binding in assay [3] was determined as 36.

B11: TN7 isolate E11 (peptide, not shown: large carriers)
peptide: FCRFWYGCHP
modifications: disulfide 2-8 (inferred); also: displayed on M13 phage, coat protein fusion and flanking residues not given here
notes: Tested as phage isolate displaying the peptide (TN7 library); First template position printed as '-' (10 residues)
For the molecule B11, in assay [2], the ELISA signal came to 0.6. Besides, in assay [3], the relative binding was 33.

B12: TN7 isolate A12 (peptide, not shown: large carriers)
peptide: FSCLWFPFCPD
modifications: disulfide 3-9 (inferred); also: displayed on M13 phage, coat protein fusion and flanking residues not given here
notes: as for B1
With B12, the ELISA signal in assay [2] turned out to be 0.5. The relative binding in assay [3] was 28.

B13: TN7 isolate B11 (peptide, not shown: large carriers)
peptide: FFCALWPSCHH
modifications: disulfide 3-9 (inferred); also: displayed on M13 phage, coat protein fusion and flanking residues not given here
notes: as for B1
For B13, the ELISA signal in assay [2] turned out to be 0.5. Moreover, the relative binding in assay [3] came to 31.

B14: TN8 isolate D06 (peptide, not shown: large carriers)
peptide: HFCHFWFGGCPH
modifications: disulfide 3-10 (inferred); also: displayed on M13 phage, coat protein fusion and flanking residues not given here
notes: as for B2
As for B14, the ELISA signal in assay [2] stood at 1.3. Further, the relative binding in assay [3] was determined as 40.

B15: TN7 isolate D11 (peptide, not shown: large carriers)
peptide: LFCSFWYNCDA
modifications: disulfide 3-9 (inferred); also: displayed on M13 phage, coat protein fusion and flanking residues not given here
notes: as for B1
Regarding B15, the ELISA signal in assay [2] came to 0.9. For the same molecule, the relative binding in assay [3] is 35.

B16: TN7 isolate F12 (peptide, not shown: large carriers)
peptide: LFCSFWYNCDD
modifications: disulfide 3-9 (inferred); also: displayed on M13 phage, coat protein fusion and flanking residues not given here
notes: as for B1
On to B16, for which the ELISA signal in assay [2] came to 0.9.

B17: TN7 isolate C11 (peptide, not shown: large carriers)
peptide: FFCQYWYNCD
modifications: disulfide 3-9 (inferred); also: displayed on M13 phage, coat protein fusion and flanking residues not given here
notes: Tested as phage isolate displaying the peptide (TN7 library); Last template position printed as '-' (10 residues)
With B17, in assay [2], the ELISA signal was found to be 0.7. In assay [3], the relative binding came out at 26.
